We go through one molecule from article PMC7318764, “Shrimp miR-965 induced the human melanoma stem-like cell apoptosis and inhibited their stemness by disrupting the MCL-1-ER stress-XBP1 feedback loop in a cross-species manner”.

The data set concerns the target Ago2 (human, UniProt Q9UKV8 1-859). In words: EMSA; Ago2 12.5, 25, 50, 100 mM (so in the source) with 40 mM miR-965; 1 mM MgCl2; shifted band increases with Ago2; 0.1 M KCl, 1 mM DTT, 1 mM MgCl2, 10 mM HEPES pH 7.6, 30 min at 37 C; 1% agarose gel, ethidium bromide then Coomassie stain. As to conditions: protein: recombinant; single strand printed.

Sequence of Ago2 (Q9UKV8 whole entry): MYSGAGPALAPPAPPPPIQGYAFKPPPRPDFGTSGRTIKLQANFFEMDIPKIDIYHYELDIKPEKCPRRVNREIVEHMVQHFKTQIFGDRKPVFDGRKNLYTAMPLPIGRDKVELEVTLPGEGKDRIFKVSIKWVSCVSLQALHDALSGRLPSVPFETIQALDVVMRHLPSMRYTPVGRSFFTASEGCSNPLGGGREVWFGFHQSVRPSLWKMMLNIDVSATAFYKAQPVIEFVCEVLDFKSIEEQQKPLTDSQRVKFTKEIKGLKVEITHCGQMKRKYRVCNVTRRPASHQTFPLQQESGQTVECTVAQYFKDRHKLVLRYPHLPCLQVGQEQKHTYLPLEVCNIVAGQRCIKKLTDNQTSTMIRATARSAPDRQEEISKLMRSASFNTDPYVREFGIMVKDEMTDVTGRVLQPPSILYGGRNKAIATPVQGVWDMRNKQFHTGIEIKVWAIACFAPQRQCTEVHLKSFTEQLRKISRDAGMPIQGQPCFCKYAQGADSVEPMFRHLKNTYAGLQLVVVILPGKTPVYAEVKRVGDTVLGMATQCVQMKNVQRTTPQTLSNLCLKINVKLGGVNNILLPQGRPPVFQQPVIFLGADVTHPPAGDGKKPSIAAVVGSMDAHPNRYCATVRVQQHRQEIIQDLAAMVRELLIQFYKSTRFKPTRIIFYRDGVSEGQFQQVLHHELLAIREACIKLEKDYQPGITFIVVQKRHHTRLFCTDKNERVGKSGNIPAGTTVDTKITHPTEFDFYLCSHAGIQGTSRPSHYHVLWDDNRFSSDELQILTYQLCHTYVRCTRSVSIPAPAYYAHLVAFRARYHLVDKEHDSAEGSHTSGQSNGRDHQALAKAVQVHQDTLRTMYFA

Take UAAGCGUAUGGCUUUUCCCCUC (ssRNA) [shrimp miR-965]: the binding result is “binds”.
